B1: scDb/Fab-Fc (2-1)+3, trivalent trispecific anti-EGFRxanti-HER3×anti-CD3 (other)
chain: QVQLVQSGAEVKKPGSSVKVSCKASGGTFSGYTMNWVRQAPGQGLEWMGLINPYKGVSTYNGKFKDRVTITADKSTSTAYMELSSLRSEDTAVYYCARSGYYGDSDWYFDVWGQGTLVTVSSGGGGSQAGLTQPPAVSVAPGQTASITCGRDNIGSRSVHWYQQKPGQAPVLVVYDDSDRPAGIPERFSGSNYENTATLTISRVEAGDEADYYCQVWGITSDHVVFGGGTKLTVLGGGGSGGGGSGGGGSQVQLQQSGPGLVKPSQTLSLTCAISGDSVSSNRAAWNWIRQSPSRGLEWLGRTYYRSKWYNDYAQSLKSRITINPDTPKNQFSLQLNSVTPEDTAVYYCARDGQLGLDALDIWGQGTMVTVSSGGGGSDIQMTQSPSSLSASVGDRVTITCRASQDIRNYLNWYQQKPGKAPKLLIYYTSRLHSGVPSRFSGSGSGTDFTFTISSLQPEDIATYYCQQGNTLPWTFGQGTKLEIKRAAADKTHTCPPCPAPPVAGPSVFLFPPKPKDTLMISRTPEVTCVVVDVSHEDPEVKFNWYVDGVEVHNAKTKPREEQYNSTYRVVSVLTVLHQDWLNGKEYKCKVSNKGLPSSIEKTISKAKGQPREPQVCTLPPSRDELTKNQVSLSCAVKGFYPSDIAVEWESNGQPENNYKTTPPVLDSDGSFFLVSKLTVDKSRWQQGNVFSCSVMHEALHNHYTQKSLSLSPGK
heavy: EVQLVESGGGLVQPGGSLRLSCAASGFSLTNYGVHWVRQAPGKGLEWLGVIWSGGNTDYNTPFTSRFTISRDNSKNTLYLQMNSLRAEDTAVYYCARALTYYDYEFAYWGQGTTVTVSSASTKGPSVFPLAPSSKSTSGGTAALGCLVKDYFPEPVTVSWNSGALTSGVHTFPAVLQSSGLYSLSSVVTVPSSSLGTQTYICNVNHKPSNTKVDKKVEPKSCGTDKTHTCPPCPAPPVAGPSVFLFPPKPKDTLMISRTPEVTCVVVDVSHEDPEVKFNWYVDGVEVHNAKTKPREEQYNSTYRVVSVLTVLHQDWLNGKEYKCKVSNKGLPSSIEKTISKAKGQPREPQVYTLPPCRDELTKNQVSLWCLVKGFYPSDIAVEWESNGQPENNYKTTPPVLDSDGSFFLYSKLTVDKSRWQQGNVFSCSVMHEALHNHYTQKSLSLSPGK
light: DIQLTQSPSFLSASVGDRVTITCRASQSIGTNIHWYQQKPGKAPKLLIKYASESISGVPSRFSGSGSGTEFTLTISSLQPEDFATYYCQQNNNWPTTFGAGTKLEIKRTVAAPSVFIFPPSDEQLKSGTASVVCLLNNFYPREAKVQWKVDNALQSGNSQESVTEQDSKDSTYSLSSTLTLSKADYEKHKVYACEVTHQGLSSPVTKSFNRGEC
notes: Trispecific antibody: 1 = HER3, 2 = CD3, 3 = EGFR; also called scDbhuU3x3-43-Fc(hole)Δab + Fdhu225-Fc(knob)Δab + VLhu225-CLκ
B2: scDb/scFv-Fc (1-2)+3, trivalent trispecific anti-EGFRxanti-HER3×anti-CD3 (other)
chain 1: QVQLQQSGPGLVKPSQTLSLTCAISGDSVSSNRAAWNWIRQSPSRGLEWLGRTYYRSKWYNDYAQSLKSRITINPDTPKNQFSLQLNSVTPEDTAVYYCARDGQLGLDALDIWGQGTMVTVSSGGGGSDIQMTQSPSSLSASVGDRVTITCRASQDIRNYLNWYQQKPGKAPKLLIYYTSRLHSGVPSRFSGSGSGTDFTFTISSLQPEDIATYYCQQGNTLPWTFGQGTKLEIKRGGGGSGGGGSGGGGSQVQLVQSGAEVKKPGSSVKVSCKASGGTFSGYTMNWVRQAPGQGLEWMGLINPYKGVSTYNGKFKDRVTITADKSTSTAYMELSSLRSEDTAVYYCARSGYYGDSDWYFDVWGQGTLVTVSSGGGGSQAGLTQPPAVSVAPGQTASITCGRDNIGSRSVHWYQQKPGQAPVLVVYDDSDRPAGIPERFSGSNYENTATLTISRVEAGDEADYYCQVWGITSDHVVFGGGTKLTVLAAADKTHTCPPCPAPPVAGPSVFLFPPKPKDTLMISRTPEVTCVVVDVSHEDPEVKFNWYVDGVEVHNAKTKPREEQYNSTYRVVSVLTVLHQDWLNGKEYKCKVSNKGLPSSIEKTISKAKGQPREPQVCTLPPSRDELTKNQVSLSCAVKGFYPSDIAVEWESNGQPENNYKTTPPVLDSDGSFFLVSKLTVDKSRWQQGNVFSCSVMHEALHNHYTQKSLSLSPGK
chain 2: EVQLVESGGGLVQPGGSLRLSCAASGFSLTNYGVHWVRQAPGKGLEWLGVIWSGGNTDYNTPFTSRFTISRDNSKNTLYLQMNSLRAEDTAVYYCARALTYYDYEFAYWGQGTTVTVSSGGGGSGGGGSGGGGSDIQLTQSPSFLSASVGDRVTITCRASQSIGTNIHWYQQKPGKAPKLLIKYASESISGVPSRFSGSGSGTEFTLTISSLQPEDFATYYCQQNNNWPTTFGAGTKLEIKRAAADKTHTCPPCPAPPVAGPSVFLFPPKPKDTLMISRTPEVTCVVVDVSHEDPEVKFNWYVDGVEVHNAKTKPREEQYNSTYRVVSVLTVLHQDWLNGKEYKCKVSNKGLPSSIEKTISKAKGQPREPQVYTLPPCRDELTKNQVSLWCLVKGFYPSDIAVEWESNGQPENNYKTTPPVLDSDGSFFLYSKLTVDKSRWQQGNVFSCSVMHEALHNHYTQKSLSLSPGK
notes: Trispecific antibody: 1 = HER3 (3-43), 2 = CD3 (huU3), 3 = EGFR (hu225); also called scDb3-43xhuU3-Fc(hole)Δab + scFvhu225-Fc(knob)Δab
B3: scDb/Fab-Fc (1-2)+3, trivalent trispecific anti-EGFRxanti-HER3×anti-CD3 (other)
chain: B2 chain 1
heavy: B1 heavy
light: B1 light
notes: Trispecific antibody: 1 = HER3, 2 = CD3, 3 = EGFR; also called scDb3-43xhuU3-Fc(hole)Δab + Fdhu225-Fc(knob)Δab + VLhu225-CLκ
B4: scDb/scFv-Fc (2-1)+3, trivalent trispecific anti-EGFRxanti-HER3×anti-CD3 (other)
chain 1: B1 chain
chain 2: B2 chain 2
notes: Trispecific antibody: 1 = HER3, 2 = CD3, 3 = EGFR; also called scDbhuU3x3-43-Fc(hole)Δab + scFvhu225-Fc(knob)Δab
B5: scDb/scFv-Fc (1-3)+2, trivalent trispecific anti-EGFRxanti-HER3×anti-CD3 (other)
chain 1: EVQLVESGGGLVQPGGSLRLSCAASGFSLTNYGVHWVRQAPGKGLEWLGVIWSGGNTDYNTPFTSRFTISRDNSKNTLYLQMNSLRAEDTAVYYCARALTYYDYEFAYWGQGTTVTVSSGGGGSQAGLTQPPAVSVAPGQTASITCGRDNIGSRSVHWYQQKPGQAPVLVVYDDSDRPAGIPERFSGSNYENTATLTISRVEAGDEADYYCQVWGITSDHVVFGGGTKLTVLGGGGSGGGGSGGGGSQVQLQQSGPGLVKPSQTLSLTCAISGDSVSSNRAAWNWIRQSPSRGLEWLGRTYYRSKWYNDYAQSLKSRITINPDTPKNQFSLQLNSVTPEDTAVYYCARDGQLGLDALDIWGQGTMVTVSSGGGGSDIQLTQSPSFLSASVGDRVTITCRASQSIGTNIHWYQQKPGKAPKLLIKYASESISGVPSRFSGSGSGTEFTLTISSLQPEDFATYYCQQNNNWPTTFGAGTKLEIKRAAADKTHTCPPCPAPPVAGPSVFLFPPKPKDTLMISRTPEVTCVVVDVSHEDPEVKFNWYVDGVEVHNAKTKPREEQYNSTYRVVSVLTVLHQDWLNGKEYKCKVSNKGLPSSIEKTISKAKGQPREPQVCTLPPSRDELTKNQVSLSCAVKGFYPSDIAVEWESNGQPENNYKTTPPVLDSDGSFFLVSKLTVDKSRWQQGNVFSCSVMHEALHNHYTQKSLSLSPGK
chain 2: DIQMTQSPSSLSASVGDRVTITCRASQDIRNYLNWYQQKPGKAPKLLIYYTSRLHSGVPSRFSGSGSGTDFTFTISSLQPEDIATYYCQQGNTLPWTFGQGTKLEIKRGGGGSGGGGSGGGGSQVQLVQSGAEVKKPGSSVKVSCKASGGTFSGYTMNWVRQAPGQGLEWMGLINPYKGVSTYNGKFKDRVTITADKSTSTAYMELSSLRSEDTAVYYCARSGYYGDSDWYFDVWGQGTLVTVSSAAADKTHTCPPCPAPPVAGPSVFLFPPKPKDTLMISRTPEVTCVVVDVSHEDPEVKFNWYVDGVEVHNAKTKPREEQYNSTYRVVSVLTVLHQDWLNGKEYKCKVSNKGLPSSIEKTISKAKGQPREPQVYTLPPCRDELTKNQVSLWCLVKGFYPSDIAVEWESNGQPENNYKTTPPVLDSDGSFFLYSKLTVDKSRWQQGNVFSCSVMHEALHNHYTQKSLSLSPGK
notes: Trispecific antibody: 1 = HER3, 2 = CD3, 3 = EGFR; also called scDbhu225x3-43-Fc(hole)Δab + scFvhuU3-Fc(knob)Δab
B6: scDb/Fab-Fc (1-3)+2, trivalent trispecific anti-EGFRxanti-HER3×anti-CD3 (other)
chain: B5 chain 1
heavy: QVQLVQSGAEVKKPGSSVKVSCKASGGTFSGYTMNWVRQAPGQGLEWMGLINPYKGVSTYNGKFKDRVTITADKSTSTAYMELSSLRSEDTAVYYCARSGYYGDSDWYFDVWGQGTLVTVSSASTKGPSVFPLAPSSKSTSGGTAALGCLVKDYFPEPVTVSWNSGALTSGVHTFPAVLQSSGLYSLSSVVTVPSSSLGTQTYICNVNHKPSNTKVDKKVEPKSCDKTHTCPPCPAPPVAGPSVFLFPPKPKDTLMISRTPEVTCVVVDVSHEDPEVKFNWYVDGVEVHNAKTKPREEQYNSTYRVVSVLTVLHQDWLNGKEYKCKVSNKGLPSSIEKTISKAKGQPREPQVYTLPPCRDELTKNQVSLWCLVKGFYPSDIAVEWESNGQPENNYKTTPPVLDSDGSFFLYSKLTVDKSRWQQGNVFSCSVMHEALHNHYTQKSLSLSPGK
light: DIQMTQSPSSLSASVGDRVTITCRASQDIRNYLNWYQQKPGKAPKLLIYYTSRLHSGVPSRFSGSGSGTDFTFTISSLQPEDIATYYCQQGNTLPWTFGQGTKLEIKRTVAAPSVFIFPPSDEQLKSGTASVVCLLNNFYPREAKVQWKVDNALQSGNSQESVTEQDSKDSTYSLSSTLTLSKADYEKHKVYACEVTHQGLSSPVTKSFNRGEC
notes: Trispecific antibody: 1 = HER3, 2 = CD3, 3 = EGFR; also called scDbhu225x3-43-Fc(hole)Δab + FdhuU3-Fc(knob)Δab + VLhuU3-CLK

Molecular target: T1, CD3 (UniProt P07766 23-207)
T1 construct: whole, on cells; on cells it stands in the TCR/CD3 complex; also called CD3 on Jurkat cells
Experiment: flow cytometry, serial dilution on Jurkat cells (CD3-expressing), PE anti-human Fc detection, n = 1
Procedure: Trivalent, trispecific antibodies were analyzed for their binding to tumor cell lines with different EGFR- and HER3-expression levels (Table 14) by flow cytometry. Adherent cells were washed with PBS and shortly trypsinized at 37° C. Trypsin was quenched with FCS-containing medium and removed by centrifugation (500×g, 5 min.). 1×10⁵ target cells/well (FaDu, LIM1215, SKBR-3, T-47-D, MCF-7 and Jurkat cells) were incubated with a serial dilution of trivalent, trispecific antibodies for 1 h at 4° C. After removing excess of recombinant protein by washing with PBA (PBS, 2% FBS, and 0.02% sodium azide), bound protein was detected using PE-conjugated anti-human Fc mAb (Jackson ImmunoResearch Laboratories Inc). Fluorescence was measured using MACSquant VYB (Miltenyi Biotec) and data were analyzed using FlowJo (Tree Star). Relative median fluorescence intensities (MFI) were calculated as followed: relative MFI=((MFIₛₐₘₚₗₑ-(MFIdetection-MFIcells))/MFIcells).

| EC50 | Binder |
| --- | --- |
| 1.1 nM | B1 |
| 1.6 nM | B2 |
| 0.8 nM | B3 |
| 2.6 nM | B4 |
| 0.6 nM | B5 |
| 0.8 nM | B6 |

Reference: patent US20220396635A1 (UNIVERSIT T STUTTGART, published 2022)
